{"source": "paper PMC5801464", "about": "“Expanding Primary Metabolism Helps Generate the Metabolic Robustness To Facilitate Antibiotic Biosynthesis in Streptomyces” (mBio, 2018)", "key": {"[1]": {"target": "T1, Pyk1 (Streptomyces coelicolor, UniProt Q9S2I9)", "T1 construct": "E. coli codon-optimized gene; E. coli Origami B host", "T1 sequence (Q9S2I9 1-478)": "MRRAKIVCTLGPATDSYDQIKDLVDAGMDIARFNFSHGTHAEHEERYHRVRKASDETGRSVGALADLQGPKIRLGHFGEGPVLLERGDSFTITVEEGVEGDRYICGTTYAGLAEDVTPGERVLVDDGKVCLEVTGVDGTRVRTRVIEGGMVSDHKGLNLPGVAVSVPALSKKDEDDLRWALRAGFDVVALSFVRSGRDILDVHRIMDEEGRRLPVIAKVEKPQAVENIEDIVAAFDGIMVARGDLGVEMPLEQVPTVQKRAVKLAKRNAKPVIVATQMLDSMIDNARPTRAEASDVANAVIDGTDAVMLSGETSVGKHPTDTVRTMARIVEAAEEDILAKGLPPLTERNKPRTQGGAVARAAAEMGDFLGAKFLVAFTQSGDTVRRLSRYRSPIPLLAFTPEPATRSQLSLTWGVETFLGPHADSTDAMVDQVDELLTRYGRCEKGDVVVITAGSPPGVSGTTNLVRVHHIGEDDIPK", "test": "pyruvate kinase activity assay, purified enzyme", "assay_type": "biochemical", "conditions": "activator"}, "[2]": {"target": "T2, Pyk2 (Streptomyces coelicolor, UniProt Q9L299)", "T2 construct": "native gene; E. coli Rosetta host", "T2 sequence (Q9L299 1-476)": "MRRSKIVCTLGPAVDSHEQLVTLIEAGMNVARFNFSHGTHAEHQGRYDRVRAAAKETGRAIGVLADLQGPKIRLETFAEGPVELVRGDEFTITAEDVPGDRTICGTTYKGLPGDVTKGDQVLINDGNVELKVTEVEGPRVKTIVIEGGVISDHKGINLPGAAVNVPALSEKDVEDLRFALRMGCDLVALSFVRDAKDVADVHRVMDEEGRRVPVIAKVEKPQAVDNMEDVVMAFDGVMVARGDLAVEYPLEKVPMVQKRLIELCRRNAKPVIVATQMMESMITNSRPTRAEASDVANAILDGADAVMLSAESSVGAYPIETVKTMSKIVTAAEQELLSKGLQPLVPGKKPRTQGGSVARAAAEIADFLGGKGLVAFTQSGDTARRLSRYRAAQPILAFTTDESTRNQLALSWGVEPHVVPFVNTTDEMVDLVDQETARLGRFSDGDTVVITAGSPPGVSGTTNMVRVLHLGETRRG", "test": "pyruvate kinase activity assay, purified enzyme, Hill or Michaelis-Menten fit", "assay_type": "biochemical", "conditions": "activator; PEP and ADP concentrations not told; read-out: No AMP / Pyk2", "source_text": "pyruvate kinase activity assay, purified enzyme, Hill or Michaelis-Menten fit on Pyk2"}, "[3]": {"target": "T1, Pyk1", "test": "pyruvate kinase activity assay, purified enzyme, Hill or Michaelis-Menten fit", "assay_type": "biochemical", "conditions": "activator; PEP and ADP concentrations not told; read-out: No AMP / Pyk1", "source_text": "pyruvate kinase activity assay, purified enzyme, Hill or Michaelis-Menten fit on Pyk1"}, "[4]": {"substrate": "Nc1ncnc2c1ncn2[C@@H]1O[C@H](COP(=O)(O)OP(=O)(O)O)[C@@H](O)[C@H]1O", "test": "pyruvate kinase activity assay, purified enzyme, Michaelis-Menten fit", "assay_type": "biochemical, Streptomyces coelicolor", "conditions": "5 mM PEP; no AMP; Michaelis-Menten-type kinetics", "source_text": "pyruvate kinase activity assay, purified enzyme, Michaelis-Menten fit on Pyk2"}, "[5]": {"substrate": "C=C(OP(=O)(O)O)C(=O)O", "test": "pyruvate kinase activity assay, purified enzyme, Hill fit", "assay_type": "biochemical, Streptomyces coelicolor", "conditions": "1.5 mM ADP; no AMP; cooperative, Hill coefficient 1.5", "source_text": "pyruvate kinase activity assay, purified enzyme, Hill fit on Pyk2"}, "[6]": {"substrate": "C=C(OP(=O)(O)O)C(=O)O", "test": "pyruvate kinase activity assay, purified enzyme, Hill fit", "assay_type": "biochemical, Streptomyces coelicolor", "conditions": "1.5 mM ADP; no AMP; cooperative, Hill coefficient 3.7", "source_text": "pyruvate kinase activity assay, purified enzyme, Hill fit on Pyk1"}, "[7]": {"substrate": "Nc1ncnc2c1ncn2[C@@H]1O[C@H](COP(=O)(O)OP(=O)(O)O)[C@@H](O)[C@H]1O", "test": "pyruvate kinase activity assay, purified enzyme, Michaelis-Menten fit", "assay_type": "biochemical, Streptomyces coelicolor", "conditions": "5 mM PEP; no AMP; Michaelis-Menten-type kinetics", "source_text": "pyruvate kinase activity assay, purified enzyme, Michaelis-Menten fit on Pyk1", "remark": "listed apart in the source"}}, "data": [{"molecule": "O=P(O)(O)OC[C@H]1OC(O)[C@H](O)[C@@H]1O", "note": "(stereo partly shown) [ribose-5-phosphate]", "values": [{"measurement": "pyruvate kinase activity assay, purified enzyme", "setting": "[1]", "result": "Pyk1 was also shown to be highly stimulated by ribose-5-phosphate"}]}, {"molecule": "Nc1ncnc2c1ncn2[C@@H]1O[C@H](COP(=O)(O)O)[C@@H](O)[C@H]1O", "note": "[AMP]", "values": [{"measurement": "EC50", "setting": "[2]", "result": 3800, "unit": "µM"}, {"measurement": "EC50", "setting": "[3]", "result": 10, "unit": "µM"}]}, {"molecule": "Pyk2 (Streptomyces coelicolor A3(2)) (protein, native gene; E. coli Rosetta host) MRRSKIVCTLGPAVDSHEQLVTLIEAGMNVARFNFSHGTHAEHQGRYDRVRAAAKETGRAIGVLADLQGPKIRLETFAEGPVELVRGDEFTITAEDVPGDRTICGTTYKGLPGDVTKGDQVLINDGNVELKVTEVEGPRVKTIVIEGGVISDHKGINLPGAAVNVPALSEKDVEDLRFALRMGCDLVALSFVRDAKDVADVHRVMDEEGRRVPVIAKVEKPQAVDNMEDVVMAFDGVMVARGDLAVEYPLEKVPMVQKRLIELCRRNAKPVIVATQMMESMITNSRPTRAEASDVANAILDGADAVMLSAESSVGAYPIETVKTMSKIVTAAEQELLSKGLQPLVPGKKPRTQGGSVARAAAEIADFLGGKGLVAFTQSGDTARRLSRYRAAQPILAFTTDESTRNQLALSWGVEPHVVPFVNTTDEMVDLVDQETARLGRFSDGDTVVITAGSPPGVSGTTNMVRVLHLGETRRG", "values": [{"measurement": "K0.5", "setting": "[4]", "result": 0.3, "unit": "mM"}, {"measurement": "kcat/Km", "setting": "[4]", "result": 145000, "unit": "M⁻¹ s⁻¹"}, {"measurement": "K0.5", "setting": "[5]", "result": 1.3, "unit": "mM"}, {"measurement": "kcat/Km", "setting": "[5]", "result": 14000, "unit": "M⁻¹ s⁻¹"}]}, {"molecule": "Pyk1 (Streptomyces coelicolor A3(2)) (protein, E. coli codon-optimized gene; E. coli Origami B host) MRRAKIVCTLGPATDSYDQIKDLVDAGMDIARFNFSHGTHAEHEERYHRVRKASDETGRSVGALADLQGPKIRLGHFGEGPVLLERGDSFTITVEEGVEGDRYICGTTYAGLAEDVTPGERVLVDDGKVCLEVTGVDGTRVRTRVIEGGMVSDHKGLNLPGVAVSVPALSKKDEDDLRWALRAGFDVVALSFVRSGRDILDVHRIMDEEGRRLPVIAKVEKPQAVENIEDIVAAFDGIMVARGDLGVEMPLEQVPTVQKRAVKLAKRNAKPVIVATQMLDSMIDNARPTRAEASDVANAVIDGTDAVMLSGETSVGKHPTDTVRTMARIVEAAEEDILAKGLPPLTERNKPRTQGGAVARAAAEMGDFLGAKFLVAFTQSGDTVRRLSRYRSPIPLLAFTPEPATRSQLSLTWGVETFLGPHADSTDAMVDQVDELLTRYGRCEKGDVVVITAGSPPGVSGTTNLVRVHHIGEDDIPK", "values": [{"measurement": "K0.5", "setting": "[6]", "result": 3.5, "unit": "mM"}, {"measurement": "Vmax", "setting": "[6]", "result": 14.1, "unit": "µmol/min/mg"}, {"measurement": "kcat", "setting": "[6]", "result": 350, "unit": "s⁻¹"}, {"measurement": "kcat/Km", "setting": "[6]", "result": 100000, "unit": "M⁻¹ s⁻¹"}, {"measurement": "K0.5", "setting": "[7]", "result": 0.6, "unit": "mM"}, {"measurement": "kcat/Km", "setting": "[7]", "result": "1.59e+06", "unit": "M⁻¹ s⁻¹"}]}]}
